Test results as given in publication PMC3169410 (Acta Crystallographica Section F: Structural Biology and …, 2011).

Biological target: the molecule itself
Experiment: crystal structure

B1: BrabA.11339.a, putative β-lactamase-like protein from Brucella melitensis biovar Abortus 2308 (natural protein)
chain: TSPRNCLRFTLLGCGSSPGVPRINGDWGKCDPKNPKNRRRRASLLVERYDAEGNNTVVVIDTGPDFRMQMIDSGVHMLDAAVYTHPHADHIHGIDDLRTYVVDNGRLMDVYANRLTRNRLYDTFGYCFETPVGSSYPPILSMHDIAPETPFSIEGAGGAIRFEPFSQVHGDIESLGFRIGSVVYCTDVSAFPEQSLQYIKDADVLIIGALQYRPHPSHFSLGEALEWIEKLSPKRAILTHMHVPLDYETVMRETPHHVEPGYDGLRFEVAV
notes: also called BAB1_1016
  stoichiometry N: 2
